Experimental data: article doi:10.1101/416081v1

Tests used:
Test in all cases: purified protein
CC(=O)Oc1ccccc1 = details: pH 8.0; 25.0 °C
O=C1CCc2ccccc2O1 = details: pH 7.4; 25.0 °C
[1] = tested on: CC(=O)Oc1ccc([N+](=O)[O-])cc1; details: pH 8.0; 25.0 °C
[2] = tested on: CCCC(=O)Oc1ccc([N+](=O)[O-])cc1; details: pH 8.0; 25.0 °C

reTAPON1-LIKE (Trichoderma atroviride)
Km (CC(=O)Oc1ccccc1): 890 ± 60 µM
Km (O=C1CCc2ccccc2O1): 730 ± 10 µM
Km [1]: 1120 ± 140 µM
Km [2]: 1580 ± 120 µM
